This experiment deals with insulin-like growth factor I (IGF-I) (UniProt P05019). In words: cell-based or functional assay.

This passage reports IGF-I stimulated Ba/F3 cell proliferation results from patent US20110165145A1, “IGF-II/IGF-IIE BINDING PROTEINS” (priority 2008, published 2011).

Chain of insulin-like growth factor I (IGF-I) (P05019 49-118 limits assumed): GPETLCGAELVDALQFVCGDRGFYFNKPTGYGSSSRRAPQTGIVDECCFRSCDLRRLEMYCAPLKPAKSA

On to “Neu-IGF-II antibody (anti-IGF-II antibody, R&D system Cat# MAB292)”, for which the IGF-I stimulated Ba/F3 cell proliferation turned out to be 30 % inhibition.
